We go through one molecule from publication PMC3925836 (Advanced healthcare materials, 2013).

The target of one experiment is T1, GPRP-A80-I60.
T1 chain: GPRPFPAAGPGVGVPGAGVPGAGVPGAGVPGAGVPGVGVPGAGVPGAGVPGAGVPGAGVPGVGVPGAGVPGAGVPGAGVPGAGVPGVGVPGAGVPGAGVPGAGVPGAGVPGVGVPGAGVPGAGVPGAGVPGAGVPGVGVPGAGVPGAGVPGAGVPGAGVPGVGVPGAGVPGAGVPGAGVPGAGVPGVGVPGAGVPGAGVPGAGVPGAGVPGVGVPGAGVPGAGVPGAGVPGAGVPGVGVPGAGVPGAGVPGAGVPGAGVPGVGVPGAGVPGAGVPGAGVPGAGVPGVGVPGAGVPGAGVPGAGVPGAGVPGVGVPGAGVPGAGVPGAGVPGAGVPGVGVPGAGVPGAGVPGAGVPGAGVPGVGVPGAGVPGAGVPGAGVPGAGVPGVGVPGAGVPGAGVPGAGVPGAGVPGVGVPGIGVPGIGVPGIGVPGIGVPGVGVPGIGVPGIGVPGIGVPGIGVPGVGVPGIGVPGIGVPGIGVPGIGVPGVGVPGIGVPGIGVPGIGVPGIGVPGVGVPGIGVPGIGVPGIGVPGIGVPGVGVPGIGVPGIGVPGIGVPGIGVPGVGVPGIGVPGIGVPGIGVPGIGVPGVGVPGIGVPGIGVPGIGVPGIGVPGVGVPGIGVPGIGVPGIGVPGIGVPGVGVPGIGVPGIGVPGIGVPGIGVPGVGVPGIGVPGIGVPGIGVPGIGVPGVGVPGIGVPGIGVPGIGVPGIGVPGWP
As to the kind of experiment: plate-based fluorescence binding assay.

The next experiment deals with T2, GPRP-P40-I60.
T2 chain: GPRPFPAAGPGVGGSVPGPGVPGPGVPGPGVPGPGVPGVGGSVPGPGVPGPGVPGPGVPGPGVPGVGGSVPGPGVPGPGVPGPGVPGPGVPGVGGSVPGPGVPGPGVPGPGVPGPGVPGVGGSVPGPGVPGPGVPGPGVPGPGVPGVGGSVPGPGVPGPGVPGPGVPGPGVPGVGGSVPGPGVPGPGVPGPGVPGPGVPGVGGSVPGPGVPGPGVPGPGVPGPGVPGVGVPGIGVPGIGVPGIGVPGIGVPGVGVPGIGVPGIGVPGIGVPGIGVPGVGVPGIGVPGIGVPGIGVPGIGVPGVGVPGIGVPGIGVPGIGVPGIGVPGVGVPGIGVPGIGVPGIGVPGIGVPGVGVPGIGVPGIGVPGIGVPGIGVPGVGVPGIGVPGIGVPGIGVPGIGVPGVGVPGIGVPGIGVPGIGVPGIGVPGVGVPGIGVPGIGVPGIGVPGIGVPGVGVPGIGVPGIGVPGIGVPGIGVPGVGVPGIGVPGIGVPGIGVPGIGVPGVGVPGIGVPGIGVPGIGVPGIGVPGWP
The experiment can be described thus: plate-based fluorescence binding assay.

B1: GPSP-P40-I60-C labelled with Alexa Fluor 488 or Alexa Fluor 546 (designed binder)
chain: GPSPFPAAGPGVGGSVPGPGVPGPGVPGPGVPGPGVPGVGGSVPGPGVPGPGVPGPGVPGPGVPGVGGSVPGPGVPGPGVPGPGVPGPGVPGVGGSVPGPGVPGPGVPGPGVPGPGVPGVGGSVPGPGVPGPGVPGPGVPGPGVPGVGGSVPGPGVPGPGVPGPGVPGPGVPGVGGSVPGPGVPGPGVPGPGVPGPGVPGVGGSVPGPGVPGPGVPGPGVPGPGVPGVGVPGIGVPGIGVPGIGVPGIGVPGVGVPGIGVPGIGVPGIGVPGIGVPGVGVPGIGVPGIGVPGIGVPGIGVPGVGVPGIGVPGIGVPGIGVPGIGVPGVGVPGIGVPGIGVPGIGVPGIGVPGVGVPGIGVPGIGVPGIGVPGIGVPGVGVPGIGVPGIGVPGIGVPGIGVPGVGVPGIGVPGIGVPGIGVPGIGVPGVGVPGIGVPGIGVPGIGVPGIGVPGVGVPGIGVPGIGVPGIGVPGIGVPGVGVPGIGVPGIGVPGIGVPGIGVPGVGVPGIGVPGIGVPGIGVPGIGVPGWPGGC
modifications: Alexa Fluor 488 or Alexa Fluor 546 on the C-terminal cysteine (sulfhydryl-maleimide)
As to B1, the binding result with GPRP-A80-I60 and with GPRP-P40-I60 was “binds” in each case.
